# Results reported in patent US20220281966A1 (Amgen, published 2022).
# Residue numbers refer to the chain shown, from its start.
# T1: mouse IL-13 (mouse, UniProt P20109 21-131, limits assumed)
# T1 sequence (looked up): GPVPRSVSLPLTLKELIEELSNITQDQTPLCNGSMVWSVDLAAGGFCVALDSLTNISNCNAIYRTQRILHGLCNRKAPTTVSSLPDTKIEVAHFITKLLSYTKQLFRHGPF
# T2: Human IL-13-Mouse IL-13 Helix D chimera (human with mouse Helix D)
# T2 construct: also called Mo HelixD
# T2 chain: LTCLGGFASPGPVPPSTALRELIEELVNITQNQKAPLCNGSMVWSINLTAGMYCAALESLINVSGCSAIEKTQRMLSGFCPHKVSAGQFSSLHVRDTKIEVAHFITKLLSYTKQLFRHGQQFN
# B1: antibody 353 (antibody, V domains shown)
# VH: QVQLQESGPGLVKPSETLSLTCTVSGGSISTYYWSWIRQPPGKGLEWIGYIYYSGSTNYNPSLKSRVTISVDTSKNQFSLKLSSVTAADTAVYYCARDGGHYWDDAFDIWGQGTMVTVSS
# VL: DIQMTQSPSSLSASVGDRVTITCRASQGIRNDLDWYQQKPGKAPKRLIYDASSLQSGVPSRFSGSGSGTEFTLTISSLQPEDFATYYCLQHDSYPFTFGPGTKVDIK
# B2: antibody 693 (antibody, V domains shown)
# VH: QVQLQESGPGLVKPSETLSLTCSVSGGSISSYYWSWIRQPAGKGLEWIGRIYMTGRTNYNSSLKSRVTMSIDTSKNQLSLKLSFMTAADTAVYYCARESGSSYSYDYWGQGTLVTVSS
# VL: SYVLTQPPSVSVAPGQTARITCGGNNIGSKGVHWYQQKPGQAPVLVVYDDSDRPSGIPERFSGSNSGNTATLTISRVEAGDEADYYCQVWVSSSDHHVVFGGGTKLTVV
# notes: also called sc693
# B3: antibody 11.18.3 (antibody, V domains shown)
# VH: QVQLVESGGGVVQPGRSLRLSCVASGFTFSSYDMHWVRQAPGKGLEWVAVIWYDGSNKYYADSVQGRFTISRDNSKNTLYLQMNSLRAEDTAVYYCTSEDSSGWYDGWFDPWGQGTLVTVSS
# VL: DIQMTQSPSSLSASVGDRVTITCRASQGISNYLAWYQQKPGKVPKVLIYAASTLQSGVPSRFSGSGSGTDFTLTISSLQPEDVATYYCQKYNSAPFTFGPGTKVDIK
# B4: antibody 785 (antibody, V domains shown)
# VH: not shown
# VL: SYVLTQPPSVSVAPGQTARITCGGNNIGNKIVHWYQQKPGQAPVLVVYDDSDRPSGIPERFSGSNSGNTATLTISRVEAGDEADYYCQVWDSSSDHVVFGGGTKLTVL
# notes: lambda light chain
# B5: antibody 623 (antibody, V domains shown)
# VH: EVQLVESGGGLVKPGGSLRLSCAASGFTFSNAWMSWVRQAPGKGLEWVGRIRSEIDGGTTNYAAPVKGRFTISRDDSKNTLYLQMNSLKTEDTAVYYCATDQVGAYYGDYYGMDVWGQGTLVTVSS
# VL: SYELTQPPSVSVSPGQTARITCSGDALPEKYAYWYQQKSGQAPVLVIYEDSKRPSGIPERFSGSSSGTMATLTISGAQVEDEADYYCHSTDSSGNHGVFGGGTKLTVL
# B6: antibody 643 (antibody, V domains shown)
# VH: B5 VH with K89R
# VL: B5 VL
# notes: also called Ab 643; mAb 643
# B7: antibody 602 (antibody, V domains shown)
# VH: B5 VH with E54K, T60I
# VL: B5 VL with S51T, H88Y
# notes: also called mAb 602
# Columns and labels:
# [1] = target: T3, IL-13 (human IL-13, preparation not specified) (human, UniProt P35225 35-146, limits assumed); assay: cell-based or functional assay
# [2] = target: T1, mouse IL-13; assay: ELISA, epitope mapping with chimeras
# [3] = target: T2, Human IL-13-Mouse IL-13 Helix D chimera; assay: ELISA on secreted chimeric IL-13
# [4] = target: T4, Recombinant Human IL-13 (R&D 213-IL-005) (human, UniProt P35225 35-146); assay: Biacore 2000, mAb captured on goat anti-human surface, IL-13 (R&D) injected, 1:1 fit; first run
# [5] = target: T4, Recombinant Human IL-13 (R&D 213-IL-005); assay: Biacore 2000, mAb captured on goat anti-human surface, IL-13 (R&D) injected, 1:1 fit; second run
# [6] = target: T5, native human IL-13 (human, UniProt P35225 25-146); assay: KinExA, Kinetic Direct method
# T5 construct: mature; Secreted by stimulated PBMCs; also called hIL-13 (KinExA)
# [7] = target: T5, native human IL-13; assay: KinExA, Kinetic inject method
# [8] = target: T5, native human IL-13; assay: KinExA equilibrium in solution
# [9] = target: T6, native macaque monkey IL-13 (macaque monkey, UniProt Q0PW92 19-132); assay: KinExA equilibrium in solution
# T6 construct: also called native macaque IL-13
# [10] = target: T5, native human IL-13; assay: KinExA, Kinetic Direct method (KD repeated from Table 10)
# [11] = target: T5, native human IL-13; assay: KinExA, Kinetic Direct method; calculated from kon and KD
# [12] = target: T5, native human IL-13; assay: KinExA, Kinetic inject method (KD repeated from Table 10)
# [13] = target: T5, native human IL-13; assay: KinExA, Kinetic inject method; calculated from kon and KD
# [14] = target: T4, Recombinant Human IL-13 (R&D 213-IL-005); assay: Biacore 2000, mAb captured on goat anti-human surface, IL-13 (R&D) injected, 1:1 fit
# [15] = target: T7, Human IL-13-rabbit Fc fusion protein (human); assay: ELISA on plates coated with IL-13RbFc, antibody without soluble competitor, detection rabbit anti Hu IgG Fc HRP
# T7 construct: also called IL-13-RbFc; IL-13RbFc
# [16] = target: T3, IL-13 (human IL-13, preparation not …); assay: cell-based or functional assay; remark: listed apart in the source
# T4 sequence (P35225 35-146 limits assumed): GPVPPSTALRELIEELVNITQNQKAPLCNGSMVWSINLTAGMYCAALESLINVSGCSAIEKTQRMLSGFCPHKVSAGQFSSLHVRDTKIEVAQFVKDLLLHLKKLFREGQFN
# T3 sequence (P35225 35-146 limits assumed): as above
# T7 sequence (chain, as listed by the source limits assumed): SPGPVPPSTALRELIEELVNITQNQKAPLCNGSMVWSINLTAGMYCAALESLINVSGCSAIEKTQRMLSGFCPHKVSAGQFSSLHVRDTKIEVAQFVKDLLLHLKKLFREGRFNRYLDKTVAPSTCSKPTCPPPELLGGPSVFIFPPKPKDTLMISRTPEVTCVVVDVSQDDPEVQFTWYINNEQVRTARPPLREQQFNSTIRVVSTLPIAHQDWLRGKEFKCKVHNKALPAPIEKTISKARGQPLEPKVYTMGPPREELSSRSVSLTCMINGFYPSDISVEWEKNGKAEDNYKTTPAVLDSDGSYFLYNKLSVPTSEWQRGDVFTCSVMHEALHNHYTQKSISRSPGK
# T6 sequence (Q0PW92 entry or part of it limits assumed): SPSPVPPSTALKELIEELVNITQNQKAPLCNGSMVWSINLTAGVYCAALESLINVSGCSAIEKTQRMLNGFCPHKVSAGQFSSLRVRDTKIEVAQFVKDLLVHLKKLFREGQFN
Binder,"IC50, Eotaxin-1 assay, Average [1]","IC50, Eotaxin-1 assay, n = 1 [1]","IC50, Eotaxin-1 assay, n = 2 [1]","IC50, Eotaxin-1 assay, n = 3 [1]",binding result [2],Kd [14],koff [14],kon [14],further results
B1,0.101 nM,0.099 nM,0.123 nM,0.08 nM,–,–,–,–,–
B2,0.054 nM,0.038 nM,0.069 nM,0.053 nM,no binding,–,–,–,binding result [3]: no binding; Kd [4]: 0.189 nM; koff [4]: 0.00038 s⁻¹; kon [4]: 2e+06 M⁻¹ s⁻¹; Kd [5]: 0.109 nM; koff [5]: 0.00027 s⁻¹; kon [5]: 2.5e+06 M⁻¹ s⁻¹
B3,0.245 nM,0.213 nM,0.304 nM,0.217 nM,–,–,–,–,–
B4,0.176 nM,0.223 nM,0.144 nM,0.16 nM,no binding,–,–,–,binding result [3]: no binding
B5,0.036 nM,0.031 nM,0.04 nM,0.035 nM,no binding,0.052 nM,0.00025 s⁻¹,4.9e+06 M⁻¹ s⁻¹,kon [6]: 1.1e+07 M⁻¹ s⁻¹; kon [7]: 1.5e+07 M⁻¹ s⁻¹; Kd [8]: 0.024 nM; Kd [9]: 0.037 nM; Kd [10]: 0.024 nM; koff [11]: 0.00027 s⁻¹; Kd [12]: 0.024 nM; koff [13]: 0.00036 s⁻¹; binding result [15]: binds
B6,0.035 nM,0.044 nM,0.028 nM,0.033 nM,no binding,0.066 nM,0.00029 s⁻¹,4.4e+06 M⁻¹ s⁻¹,IC50 (read off the curve) [16]: ~0.03 nM; Kd [8]: 0.013 nM
B7,0.066 nM,0.08 nM,0.053 nM,–,no binding,0.172 nM,0.00051 s⁻¹,3e+06 M⁻¹ s⁻¹,–
